The target of this test is T1, K-Ras4B C-terminal peptide (Homo sapiens, also: FAM-labelled).
T1 chain: {FAM}-KKKKKKSKTKC(Farnesyl)-OMe
The experiment in a line: fluorescence polarization.

The star is where a group is joined. Farnesyl = CC(C)=CCC/C(C)=C/CC/C(C)=C/C*; FAM = fluorescein label

B1: PDE6D (protein)
chain: MSAKDERAREILRGFKLNWMNLRDAETGKILWQGTEDLSVPGVEHEARVPKKILKCKAVSRELNFSSTEQMEKFRLEQKVYFKGQCLEEWFFEFGFVIPNSTNTWQSLIEAAPESQMMPASVLTGNVIIETKFFDDDLLVSTSRVRLFYV
What is called Kd is the free concentration of one partner at which half of the binding sites on the other are occupied at equilibrium, for simple one-to-one binding. Lower therefore signals tighter binding. Molecule B1 returned a dissociation constant (Kd) of 150 nM. That is a sub-micromolar value.

For the origin of these results see article PMC12703448 (2025).
